Experimental data from US20230192839A1 (published 2023).

What was measured:
human CD33 antigen [1] = molecular target: T1, human CD33 antigen (human, UniProt P20138 18-259, limits assumed); assay: SPR (Biacore T200), 37 C, scFv-Fc, 0 uM MTX
T1 construct: whole entry named; also called Siglec-3
Method: (§1) All binding kinetics analysis was performed on label-free Biacore surface plasmon biosensors (Biacore T200™ from GE Life Sciences) at 37° C. in 10 mM Hepes pH 7.4, 150 mM NaCl, 0.05% Tween-20 (HBST+), with or without 10 µM MTX. The Biacore data were processed in Biacore T200 Evaluation Software, and the data were double-referenced (Myszka, 1999, J Mol Recognit 12(5):279-284) and fit globally to a simple Langmuir with mass transport model to determine the equilibrium dissociation constant, KD, from the ratio of the kinetic rate constants (KD = koff/kₒₙ). In some cases the binding of antigen was very low (or not detectable) in the presence of 10 µM MTX and as a result kinetic rate constants could not be accurately determined. In these cases, a KD (or KD limit) was estimated based on the binding response at the highest analyte concentration tested or based on the typical limit of detection for a Biacore T200.

human CD33 antigen [2] = molecular target: T1, human CD33 antigen; assay: SPR (Biacore T200), 37 C; KD at 10 uM MTX / KD at 0 uM MTX
Method: as §1

human CD33 antigen [3] = molecular target: T1, human CD33 antigen; assay: SPR (Biacore T200), 37 C, scFv-Fc, 10 uM MTX
Method: as §1
“*”: For interactions where kₒₙ and koff are reported, the KD was calculated using koff/kₒₙ.

T1 sequence (P20138 18-259 limits assumed): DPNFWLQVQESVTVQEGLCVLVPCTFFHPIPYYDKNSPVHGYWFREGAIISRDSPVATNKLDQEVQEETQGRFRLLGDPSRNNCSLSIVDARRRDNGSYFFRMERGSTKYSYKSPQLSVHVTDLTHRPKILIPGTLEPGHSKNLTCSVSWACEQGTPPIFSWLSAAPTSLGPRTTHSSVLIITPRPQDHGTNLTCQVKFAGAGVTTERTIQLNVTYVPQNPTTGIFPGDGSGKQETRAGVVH

Row | Binder | Kd (human CD33 antigen [1]) | koff (human CD33 antigen [1]) | kon (human CD33 antigen [1]) | Ratio: KD with MTX / KD without MTX (human CD33 antigen [2]) | Kd (human CD33 antigen [3]) | koff (human CD33 antigen [3]) | kon (human CD33 antigen [3])
1 | P02_E08 scFv-Fc fusion (scFv, V domains shown, Tested as scFv-Fc fusion) VH: QVQLVESGGGLVQAGGSLRLSCAASRRSSRSWAMHWVRQAPGKGLEWVAVISYDGRLKYYADSVKGRFTISRDNAEYLVYLQMNSLRAEDTAVYYCAASDYDGGGLFDLWGQGTLVTVSS VL: QSVLTQPPSASGTPGQRVTISCSGSNSNIGDNYVHWYQQLPGTAPKLLIYMNNQRPSGVPDRFSGSKSGTSASLAISGLRSEDEADYYCATWDDSLSGVVFGTGTKLTVL | 211 nM | 0.01 s⁻¹ | 47000 M⁻¹ s⁻¹ | > 3.4 | – | – | –
2 | P01_F05 scFv-Fc fusion (scFv, V domains shown, Tested as scFv-Fc fusion) VH: QVQLVESGGGLVQAGGSLRLSCAASRRSSRSWAMHWVRQAPGKGLEWVAVISYDGRLKYYADSVKGRFTISRDNAEYLVYLQMNSLRAEDTAVYYCAAGPDRWAGYDAFDVWGQGTLVTVSS VL: DIQMTQSPSSLSASVGDRVTITCRASQTINTHLNWYQQKPGKAPKLLIYGASNLQGGVPSRFSGSGSGTDFTLTISSLQPEDFATYYCQQSYSTPLTFGQGTKVEIK | 143 nM | 0.01 s⁻¹ | 71000 M⁻¹ s⁻¹ | > 92.5 | – | – | –
3 | P01_C05 scFv-Fc fusion (scFv, V domains shown, Tested as scFv-Fc fusion) VH: QVQLVESGGGLVQAGGSLRLSCAASRRSSRSWAMHWVRQAPGKGLEWVAVISYDGRLKYYADSVKGRFTISRDNAEYLVYLQMNSLRAEDTAVYYCAAEQWGTNDGPDGGMDYWGQGTLVTVSS VL: DIQMTQSPSSLSASVGDRVTITCRASQTIGSHLNWYQQKPGKAPKLLIYGTSNLQSGVPSRFSGSGSGTDFTLTISSLQPEDFATYYCQQSYSSPLTFGQGTKVEIK | 86 nM | 0.0066 s⁻¹ | 76000 M⁻¹ s⁻¹ | 0.5 | 44.7 nM | 0.0045 s⁻¹ | 100000 M⁻¹ s⁻¹
4 | P02_D09 scFv-Fc fusion (scFv, V domains shown, Tested as scFv-Fc fusion) VH: QVQLVESGGGLVQAGGSLRLSCAASRRSSRSWAMHWVRQAPGKGLEWVAVISYDGRLKYYADSVKGRFTISRDNAEYLVYLQMNSLRAEDTAVYYCAAEEGDGGFFDYWGQGTLVTVSS VL: QSVLTQPPSASGTPGQRVTISCSGSSSNIGSNYVNWYQQLPGTAPKLLIYRNNERPSGVPDRFSGSKSGTSASLAISGLRSEDEADYYCAAWDGSLSGRGVFGTGTKLTVL | 456 nM | 0.018 s⁻¹ | 40000 M⁻¹ s⁻¹ | > 20.4 | – | – | –
5 | P02_D08 scFv-Fc fusion (scFv, V domains shown, Tested as scFv-Fc fusion) VH: QVQLVESGGGLVQAGGSLRLSCAASRRSSRSWAMHWVRQAPGKGLEWVAVISYDGRLKYYADSVKGRFTISRDNAEYLVYLQMNSLRAEDTAVYYCAAERGDGLDGNVGLDIWGQGTLVTVSS VL: DIQMTQSPSSLSASVGDRVTITCRASQSISKYLNWYQQKPGKAPKLLIYGASTLQSGVPSRFSGSGSGTDFTLTISSLQPEDFATYYCQQSYSSGTFGQGTKVEIK | 100 nM | 0.0061 s⁻¹ | 61000 M⁻¹ s⁻¹ | 7.1 | 705 nM | 0.062 s⁻¹ | 88000 M⁻¹ s⁻¹
6 | P02_C02 scFv-Fc fusion (scFv, V domains shown, Tested as scFv-Fc fusion) VH: QVQLVESGGGLVQAGGSLRLSCAASRRSSRSWAMHWVRQAPGKGLEWVAVISYDGRLKYYADSVKGRFTISRDNAEYLVYLQMNSLRAEDTAVYYCAAEGGMGLDPWGQGTLVTVSS VL: DIQMTQSPSSLSASVGDRVTITCRASQTISSYLNWYQQKPGKAPKLLIYAASNLHSGVPSRFSGSGSGTDFTLTISSLQPEDFATYYCQQSYSSGTFGQGTKVEIK | 213 nM | 0.02 s⁻¹ | 92000 M⁻¹ s⁻¹ | 1 | 221 nM | 0.025 s⁻¹ | 110000 M⁻¹ s⁻¹
7 | P03_G12 scFv-Fc fusion (scFv, V domains shown, Tested as scFv-Fc fusion) VH: QVQLVESGGGLVQAGGSLRLSCAASRRSSRSWAMHWVRQAPGKGLEWVAVISYDGRLKYYADSVKGRFTISRDNAEYLVYLQMNSLRAEDTAVYYCAADPTEGWSYLDYWGQGTLVTVSS VL: DIQMTQSPSSLSASVGDRVTITCRASQGISSYLNWYQQKPGKAPKLLIYGASRLQSGVPSRFSGSGSGTDFTLTISSLQPEDFATYYCQQGYSSGTFGQGTKVEIK | 132 nM | 0.0094 s⁻¹ | 71000 M⁻¹ s⁻¹ | > 83 | – | – | –
8 | P08_C08 scFv-Fc fusion (scFv, V domains shown, Tested as scFv-Fc fusion) VH: QVQLVESGGGLVQAGGSLRLSCAASRRSSRSWAMHWVRQAPGKGLEWVAVISYDGRLKYYADSVKGRFTISRDNAEYLVYLQMNSLRAEDTAVYYCAAEGSGSTDGSGAIDVWGQGTLVTVSS VL: DIQMTQSPSSLSASVGDRVTITCRASQSIGSYLNWYQQKPGKAPKLLIYAASSLQSGVPSRFSGSGSGTDFTLTISSLQPEDFATYYCQQSYSSGSFGQGTKVEIK | 72 nM | 0.0045 s⁻¹ | 63000 M⁻¹ s⁻¹ | 7.6 | 547 nM | 0.051 s⁻¹ | 94000 M⁻¹ s⁻¹
9 | P16_E06 scFv-Fc fusion (scFv, V domains shown, Tested as scFv-Fc fusion) VH: QVQLVESGGGLVQAGGSLRLSCAASRRSSRSWAMHWVRQAPGKGLEWVAVISYDGRLKYYADSVKGRFTISRDNAEYLVYLQMNSLRAEDTAVYYCAAEGGDYPGTSDGGLDIWGQGTLVTVSS VL: DIQMTQSPSSLSASVGDRVTITCRASQSISNYLNWYQQKPGKAPKLLIYGASSLQSGVPSRFSGSGSGTDFTLTISSLQPEDFATYYCQQSYSAGTFGQGTKVEIK | 92 nM | 0.011 s⁻¹ | 120000 M⁻¹ s⁻¹ | 12.7 | 1170 nM | 0.087 s⁻¹ | 75000 M⁻¹ s⁻¹
10 | P04_C09 scFv-Fc fusion (scFv, V domains shown, Tested as scFv-Fc fusion) VH: QVQLVESGGGLVQAGGSLRLSCAASRRSSRSWAMHWVRQAPGKGLEWVAVISYDGRLKYYADSVKGRFTISRDNAEYLVYLQMNSLRAEDTAVYYCAAEANESDSGGIDVWGQGTLVTVSS VL: DIQMTQSPSSLSASVGDRVTITCRASQTIGGYLNWYQQKPGKAPKLLIYAASSLQSGVPSRFSGSGSGTDFTLTISSLQPEDFATYYCQQGYSSGAFGQGTKVEIK | 12 nM | 0.0018 s⁻¹ | 160000 M⁻¹ s⁻¹ | 17.7 | 205 nM | 0.0089 s⁻¹ | 44000 M⁻¹ s⁻¹
11 | P03_H04 scFv-Fc fusion (scFv, V domains shown, Tested as scFv-Fc fusion) VH: QVQLVESGGGLVQAGGSLRLSCAASRRSSRSWAMHWVRQAPGKGLEWVAVISYDGRLKYYADSVKGRFTISRDNAEYLVYLQMNSLRAEDTAVYYCAADPHDGYGGGPGFDYWGQGTLVTVSS VL: QSVLTQPPSASGTPGQRVTISCSGSSSNIGSNYVYWYQQLPGTAPKLLIYRSNQRPSGVPDRFSGSKSGTSASLAISGLRSEDEADYYCAAWDDTLSAVVFGTGTKLTVL | 366 nM | 0.026 s⁻¹ | 72000 M⁻¹ s⁻¹ | > 43 | – | – | –
12 | P01_B02 scFv-Fc fusion (scFv, V domains shown, Tested as scFv-Fc fusion) VH: QVQLVESGGGLVQAGGSLRLSCAASRRSSRSWAMHWVRQAPGKGLEWVAVISYDGRLKYYADSVKGRFTISRDNAEYLVYLQMNSLRAEDTAVYYCAAADWYSGGGDALDIWGQGTLVTVSS VL: DIQMTQSPSSLSASVGDRVTITCRASQTIYNYLNWYQQKPGKAPKLLIYGASNLQSGVPSRFSGSGSGTDFTLTISSLQPEDFATYYCQQTYSSPTFGQGTKVEIK | 19 nM | 0.0026 s⁻¹ | 140000 M⁻¹ s⁻¹ | 0.1 | 1.6 nM | 0.0006 s⁻¹ | 390000 M⁻¹ s⁻¹
13 | P02_A10 scFv-Fc fusion (scFv, V domains shown, Tested as scFv-Fc fusion) VH: QVQLVESGGGLVQAGGSLRLSCAASRRSSRSWAMHWVRQAPGKGLEWVAVISYDGRLKYYADSVKGRFTISRDNAEYLVYLQMNSLRAEDTAVYYCAAESEWDTGGFDVWGQGTLVTVSS VL: DIQMTQSPSSLSASVGDRVTITCRASQSIGSYLNWYQQKPGKAPKLLIYSSSNLQSGVPSRFSGSGSGTDFTLTISSLQPEDFATYYCQQSYTSGTFGQGTKVEIK | 523 nM | 0.044 s⁻¹ | 84000 M⁻¹ s⁻¹ | > 17.3 | – | – | –
14 | P07_C04 scFv-Fc fusion (scFv, V domains shown, Tested as scFv-Fc fusion) VH: QVQLVESGGGLVQAGGSLRLSCAASRRSSRSWAMHWVRQAPGKGLEWVAVISYDGRLKYYADSVKGRFTISRDNAEYLVYLQMNSLRAEDTAVYYCAAEPDGEGTNGGLDIWGQGTLVTVSS VL: DIQMTQSPSSLSASVGDRVTITCRASQNISRYLNWYQQKPGKAPKLLIYSASSLQTGVPSRFSGSGSGTDFTLTISSLQPEDFATYYCQQSYSSGAFGQGTKVEIK | 31 nM | 0.0029 s⁻¹ | 95000 M⁻¹ s⁻¹ | 4.7 | 144 nM | 0.025 s⁻¹ | 170000 M⁻¹ s⁻¹
15 | P02_B03 scFv-Fc fusion (scFv, V domains shown, Tested as scFv-Fc fusion) VH: QVQLVESGGGLVQAGGSLRLSCAASRRSSRSWAMHWVRQAPGKGLEWVAVISYDGRLKYYADSVKGRFTISRDNAEYLVYLQMNSLRAEDTAVYYCAADQDVGSVGNYYGNGMDVWGQGTLVTVSS VL: not shown | 170 nM | 0.023 s⁻¹ | 140000 M⁻¹ s⁻¹ | > 2 | – | – | –
16 | P04_C05 scFv-Fc fusion (scFv, V domains shown, Tested as scFv-Fc fusion) VH: QVQLVESGGGLVQAGGSLRLSCAASRRSSRSWAMHWVRQAPGKGLEWVAVISYDGRLKYYADSVKGRFTISRDNAEYLVYLQMNSLRAEDTAVYYCAAGLPWTDYWGQGTLVTVSS VL: QSVLTQPPSASGTPGQRVTISCSGSNSNIGSNYVSWYQQLPGTAPKLLIYSNNQRPSGVPDRFSGSKSGTSASLAISGLRSEDEADYYCAAWDDRLSVVFGTGTKLTVL | 25 nM | 0.0021 s⁻¹ | 83000 M⁻¹ s⁻¹ | 12 | 298 nM | 0.013 s⁻¹ | 45000 M⁻¹ s⁻¹
